Measured values: patent US20110158985A1 (published 2011)
Where a chain is given by its changes, count along the chain named.

T1: murine FcRn (mouse, UniProt P01887 21-119)
T1 construct: also called mouse FcRn; muFcRn
T1 sequence: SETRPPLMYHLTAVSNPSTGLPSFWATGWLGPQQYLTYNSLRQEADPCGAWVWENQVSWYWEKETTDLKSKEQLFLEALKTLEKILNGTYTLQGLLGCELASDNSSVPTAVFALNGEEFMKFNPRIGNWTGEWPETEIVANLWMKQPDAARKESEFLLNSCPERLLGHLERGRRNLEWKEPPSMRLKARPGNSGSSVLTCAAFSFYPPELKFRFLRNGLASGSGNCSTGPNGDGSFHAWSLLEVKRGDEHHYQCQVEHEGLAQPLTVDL
T1 sequence (b2m): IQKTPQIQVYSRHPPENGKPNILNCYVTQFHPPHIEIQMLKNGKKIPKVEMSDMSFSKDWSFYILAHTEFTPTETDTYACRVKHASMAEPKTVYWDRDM

B1: human IgG1 MEDI-493 (palivizumab) I253A (antibody)
heavy: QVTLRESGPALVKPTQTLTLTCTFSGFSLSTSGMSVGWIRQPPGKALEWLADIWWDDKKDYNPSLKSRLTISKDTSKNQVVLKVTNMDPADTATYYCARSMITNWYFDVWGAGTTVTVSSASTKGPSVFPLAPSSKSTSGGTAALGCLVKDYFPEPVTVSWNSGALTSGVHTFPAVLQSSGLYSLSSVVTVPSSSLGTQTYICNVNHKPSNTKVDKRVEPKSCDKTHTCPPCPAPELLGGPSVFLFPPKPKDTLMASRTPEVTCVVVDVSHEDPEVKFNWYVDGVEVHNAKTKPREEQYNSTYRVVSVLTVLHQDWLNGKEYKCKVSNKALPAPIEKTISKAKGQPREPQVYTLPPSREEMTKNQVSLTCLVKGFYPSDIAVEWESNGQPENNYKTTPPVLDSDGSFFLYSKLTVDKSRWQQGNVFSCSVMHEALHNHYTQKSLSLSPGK
light: DIQMTQSPSTLSASVGDRVTITCKCQLSVGYMHWYQQKPGKAPKLLIYDTSKLASGVPSRFSGSGSGTEFTLTISSLQPDDFATYYCFQGSGYPFTFGGGTKLEIKRTVAAPSVFIFPPSDEQLKSGTASVVCLLNNFYPREAKVQWKVDNALQSGNSQESVTEQDSKDSTYSLSSTLTLSKADYEKHKVYACEVTHQGLSSPVTKSFNRGEC
notes: also called 1253A
B2: MEDI-524-YTE (antibody, human IgG1, kappa)
heavy: QVTLRESGPALVKPTQTLTLTCTFSGFSLSTAGMSVGWIRQPPGKALEWLADIWWDDKKHYNPSLKDRLTISKDTSKNQVVLKVTNMDPADTATYYCARDMIFNFYFDVWGQGTTVTVSSASTKGPSVFPLAPSSKSTSGGTAALGCLVKDYFPEPVTVSWNSGALTSGVHTFPAVLQSSGLYSLSSVVTVPSSSLGTQTYICNVNHKPSNTKVDKRVEPKSCDKTHTCPPCPAPELLGGPSVFLFPPKPKDTLYITREPEVTCVVVDVSHEDPEVKFNWYVDGVEVHNAKTKPREEQYNSTYRVVSVLTVLHQDWLNGKEYKCKVSNKALPAPIEKTISKAKGQPREPQVYTLPPSREEMTKNQVSLTCLVKGFYPSDIAVEWESNGQPENNYKTTPPVLDSDGSFFLYSKLTVDKSRWQQGNVFSCSVMHEALHNHYTQKSLSLSPGK
light: B1 light with K24S, C25A, Q26S, L27S, S28R, L103V

What was measured:
human FcRn [1] = biological target: T2, human FcRn (human); test: SPR (BIAcore), FcRn over immobilised IgG1, pH 6.0
T2 construct: also called recombinant human FcRn
Method: (§1) IgG1 variants was monitored by surface plasmon resonance detection using a BIAcore 3000 instrument (Pharmacia Biosensor, Uppsala, Sweden). […] The protein concentrations ranged from 3-5 μg/ml in 10 mM sodium acetate, pH 5.0. The activation period was set for 7 minutes at a flow rate of 10 μl/min and the immobilization period was set to between 10 and 20 minutes at a flow rate of 10 μl/min. […] Human and murine FcRn were buffer exchanged against 50 mM PBS buffer pH 6.0 containing 0.05% Tween 20. Dilutions were made in the same buffer. All binding experiments were performed at 25° C. with concentrations ranging from 120 to 1 μg/ml at a flow rate of 5 to 10 μl/min; data were collected for 25 to 50 minutes and three 1-minute pulses of PBS buffer pH 7.2 were used to regenerate the surfaces. FcRn was also flowed over an uncoated cell and the sensorgrams from these blank runs subtracted from those obtained with IgG1-coupled chips. Runs were analyzed using the software BIAevaluation 3.1 (Pharmacia). Association constants (KAs) were determined from Scatchard analysis by measuring the concentration of free reactants and complex at equilibrium after correction for nonspecific binding.

murine FcRn = biological target: T1, murine FcRn; test: SPR (BIAcore), FcRn over immobilised IgG1, pH 6.0
Method: as §1

human FcRn [2] = biological target: T2, human FcRn; test: SPR (BIAcore 3000), FcRn over immobilised IgG
Method: (§2) Human and Cynomolgus Monkey FcRn were buffer-exchanged against 50 mM Phosphate Buffered Saline (PBS) pH 6.0 or 7.4 containing 0.05% Tween 20. Dilutions were made in the same buffers. […] FcRn was also flowed over an uncoated cell and the sensorgrams from these blank runs subtracted from those obtained with IgG-coupled chips. Runs were analyzed using the software BIAevaluation 3.1 (Pharmacia). Dissociation constants (Kds) were determined by fitting the binding isotherms to a one-site binding model using GraphPad Prism (GraphPad Software, Inc., CA). Errors were estimated as the mean standard deviation for at least 2 independent determinations.

Cynomolgus Monkey FcRn [3] = biological target: T3, Cynomolgus Monkey FcRn (Cynomolgus Monkey, UniProt Q8SPV9 24-290; Q8SPW0 21-119); test: SPR (BIAcore 3000), FcRn over immobilised IgG
T3 construct: also called Cynomolgus FcRn
Method: as §2

human FcRn [4] = biological target: T2, human FcRn; test: SPR (BIAcore 3000), FcRn over immobilised IgG, pH 6.0, one-site fit
Method: as §2

Cynomolgus Monkey FcRn [5] = biological target: T3, Cynomolgus Monkey FcRn; test: as above
Method: as §2

T2 sequence (chain, as listed by the source limits assumed, chain 1 of 2): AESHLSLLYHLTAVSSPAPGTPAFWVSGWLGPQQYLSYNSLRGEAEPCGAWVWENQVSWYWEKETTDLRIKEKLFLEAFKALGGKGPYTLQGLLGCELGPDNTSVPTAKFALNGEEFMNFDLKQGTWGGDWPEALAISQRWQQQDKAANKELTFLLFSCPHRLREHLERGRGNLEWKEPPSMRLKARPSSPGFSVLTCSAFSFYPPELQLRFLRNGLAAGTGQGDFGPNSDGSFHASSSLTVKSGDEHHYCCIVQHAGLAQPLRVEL
T2 sequence (P61769 21-119 limits assumed, chain 2 of 2): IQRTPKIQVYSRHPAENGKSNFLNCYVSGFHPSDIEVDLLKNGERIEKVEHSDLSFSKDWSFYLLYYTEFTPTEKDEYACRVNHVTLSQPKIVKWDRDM
T3 sequence (Q8SPV9 24-290 limits assumed, chain 1 of 2): as the sequence (chain, as listed by the source limits assumed, chain 1 of 2) above, with N39D, E44Q, G99S, S189G, S190N, L217M counted along it
T3 sequence (Q8SPW0 21-119 limits assumed, chain 2 of 2): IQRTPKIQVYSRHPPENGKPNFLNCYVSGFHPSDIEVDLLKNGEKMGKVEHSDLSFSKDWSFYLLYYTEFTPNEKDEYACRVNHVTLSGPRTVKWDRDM

Binder | binding result (human FcRn [1]) | binding result (murine FcRn) | fold affinity increase over MEDI-524 (human FcRn [2]) [fold] | fold affinity increase over MEDI-524 (Cynomolgus Monkey FcRn [3]) [fold] | Kd (human FcRn [4]) [nM] | Kd (Cynomolgus Monkey FcRn [5]) [nM]
B1 | no binding | no binding |  |  |  | 
B2 |  |  | 11 | 9 | 210 | 134
